Assay results published in PMC5774706, “Investigation of the proton relay system operative in human cystosolic aminopeptidase P” (PLoS ONE, 2018).
Changes are numbered by the printed parent chain. Names may count otherwise.

B1: human cytosolic aminopeptidase P, wild-type (enzyme, UniProt Q9NQW7 1-623, looked up)
chain: MPPKVTSELLRQLRQAMRNSEYVTEPIQAYIIPSGDAHQSEYIAPCDCRRAFVSGFDGSAGTAIITEEHAAMWTDGRYFLQAAKQMDSNWTLMKMGLKDTPTQEDWLVSVLPEGSRVGVDPLIIPTDYWKKMAKVLRSAGHHLIPVKENLVDKIWTDRPERPCKPLLTLGLDYTGISWKDKVADLRLKMAERNVMWFVVTALDEIAWLFNLRGSDVEHNPVFFSYAIIGLETIMLFIDGDRIDAPSVKEHLLLDLGLEAEYRIQVHPYKSILSELKALCADLSPREKVWVSDKASYAVSETIPKDHRCCMPYTPICIAKAVKNSAESEGMRRAHIKDAVALCELFNWLEKEVPKGGVTEISAADKAEEFRRQQADFVDLSFPTISSTGPNGAIIHYAPVPETNRTLSLDEVYLIDSGAQYKDGTTDVTRTMHFGTPTAYEKECFTYVLKGHIAVSAAVFPTGTKGHLLDSFARSALWDSGLDYLHGTGHGVGSFLNVHEGPCGISYKTFSDEPLEAGMIVTDEPGYYEDGAFGIRIENVVLVVPVKTKYNFNNRGSLTFEPLTLVPIQTKMIDVDSLTDKECDWLNNYHLTCRDVIGKELQKQGRQEALEWLIRETQPISKQH
notes: human cytosolic aminopeptidase P (hcAMPP), encoded by XPNPEP1, residues M1 to H623, cloned into pET-28a (NdeI/HindIII); The His-tag is thrombin cleavable; also called hcAMPP; wild-type hcAMPP; source: E. coli Rosetta (DE3), purified (Ni2+ chelating column)
B2: human cytosolic aminopeptidase P, R535A mutant (enzyme, UniProt Q9NQW7 1-623, looked up)
chain: B1 chain with R535A
notes: human cytosolic aminopeptidase P (hcAMPP), encoded by XPNPEP1, residues M1 to H623, with R535A made by QuikChange mutagenesis of pET28a-hcAMPP; The His-tag is thrombin cleavable; no cleavage is described; also called R535A hcAMPP; Arg535Ala hcAMPP; source: E. coli Rosetta (DE3), purified (Ni2+ chelating column)
B3: human cytosolic aminopeptidase P, Y527F mutant (enzyme, UniProt Q9NQW7 1-623, looked up)
chain: B1 chain with Y527F
notes: human cytosolic aminopeptidase P (hcAMPP), encoded by XPNPEP1, residues M1 to H623, with Y527F made by QuikChange mutagenesis of pET28a-hcAMPP; The His-tag is thrombin cleavable; no cleavage is described; also called Y527F hcAMPP; Tyr527Phe hcAMPP; source: E. coli Rosetta (DE3), purified (Ni2+ chelating column)

Legend:
[1] = target: the molecule itself; assay: AUC; sedimentation velocity, 40000 rpm, 20°C, 10 mM Tris-HCl, absorbance at 280 nm, c(s) by Sedfit; protein at 1 mg/mL; dimer to monomers
[2] = target: the molecule itself; assay: AUC; sedimentation velocity, 40000 rpm, 20°C, 10 mM Tris-HCl, absorbance at 280 nm, c(s) by Sedfit; protein at 0.1 mg/mL; dimer to monomers
[3] = target: the molecule itself; assay: AUC; sedimentation velocity, 40000 rpm, 20°C, 10 mM Tris-HCl, absorbance at 280 nm, c(s) by Sedfit; protein at 0.1 mg/mL with 10 mM guanidine hydrochloride; dimer to monomers

Row | Protein | stoichiometry N [1] | dimer:monomer ratio (printed as monomer:dimer 1:0.67) [2] | dimer:monomer ratio (printed as monomer:dimer 1:1.5) [3] | dimer:monomer ratio [1] | dimer:monomer ratio [2]
1 | B1 | 2 |  |  |  | 
2 | B2 | 2 | 0.67 | 1.5 |  | 
3 | B3 | 2 |  |  | 3.4 | 1.8
